The source of these data is patent US20260116920A1 (PEPTIDREAM, published 2026).

Starred links: 1 amine or outer side, 2 acyl side, 3 side chain; linkers in the order of their positions; H or OH if unused. Positions of bridges follow the written chain, without caps; N, C: chain ends. Non-standard residues stand in square brackets, D forms with d. Primed or numbered codes have the meaning given here. No end group written: not given here. E(PEG8Me) = (S)-30-amino-27-oxo-2,5,8,11,14,17,20,23-octaoxa-26-azahentriacontane-31-oic acid, COCCOCCOCCOCCOCCOCCOCCOCCNC(=O)CC[C@H](N[*:1])C(=O)[*:2]; E(PEG4Me) = (S)-18-amino-15-oxo-2,5,8,11-tetraoxa-14-azanonadecane-19-oic acid, COCCOCCOCCOCCNC(=O)CC[C@H](N[*:1])C(=O)[*:2]; Phe(4-OMe)(3) = (S)-2-amino-3-(4-methoxyphenyl)propanoic acid (source code F4OMe), COc1ccc(C[C@H](N[*:1])C(=O)[*:2])cc1; F4aao = (S)-2-amino-3-(4-(carboxymethoxy)phenyl)propanoic acid, O=C([C@H](Cc1ccc(OCC(=O)[*:3])cc1)N[*:1])[*:2]; Phe(4-OMe) = F4OMe = (S)-2-amino-3-(4-methoxyphenyl)propanoic acid, COc1ccc(C[C@H](N[*:1])C(=O)[*:2])cc1; E(NHdPEG1Me) = N5-(1,3-dimethoxypropan-2-yl)-L-glutamine, COCC(COC)NC(=O)CC[C@H](N[*:1])C(=O)[*:2]; dkCOmeglumine = N6-(methyl((2S,3R,4R,5R)-2,3,4,5,6-pentahydroxyhexyl)carbamoyl)-D-lysine; Trp(1-CH2CO) = O=C([C@H](Cc1cn(CC(=O)[*:3])c2ccccc12)N[*:1])[*:2]; Trp(5-Cl) = N[C@@H](Cc1c[nH]c2ccc(Cl)cc12)C(=O)O; Nle(6-morpholino) = N[C@@H](CCCCN1CCOCC1)C(=O)O; Phe(3-COOH) = N[C@@H](Cc1cccc(C(=O)O)c1)C(=O)O; Trp(7-aza) = N[C@@H](Cc1c[nH]c2ncccc12)C(=O)O; NMePhe(3-Cl) = CN[C@@H](Cc1cccc(Cl)c1)C(=O)O; NMePhe(4-F) = CN[C@@H](Cc1ccc(F)cc1)C(=O)O; 3Pal(6-NH2) = Nc1ccc(C[C@H](N)C(=O)O)cn1; NMeW = CN[C@@H](Cc1c[nH]c2ccccc12)C(=O)O; Lys(N3) = [N-]=[N+]=NCCCC[C@H](N)C(=O)O; NMeY = CN[C@@H](Cc1ccc(O)cc1)C(=O)O; NMeR = CN[C@@H](CCCNC(=N)N)C(=O)O; NMeF = CN[C@@H](Cc1ccccc1)C(=O)O; 3Pal = N[C@@H](Cc1cccnc1)C(=O)O; 4Pal = N[C@@H](Cc1ccncc1)C(=O)O

The assay deals with T1, human transferrin receptor (hTfR) (human, UniProt P02786 89-760).
T1 construct: used as 0.5 uM hTfR dimer solution, immobilised on an NTA sensor chip (Ni capture plus EDC/NHS coupling); also called human TfR; TfR1
T1 sequence (P02786 89-760 limits assumed): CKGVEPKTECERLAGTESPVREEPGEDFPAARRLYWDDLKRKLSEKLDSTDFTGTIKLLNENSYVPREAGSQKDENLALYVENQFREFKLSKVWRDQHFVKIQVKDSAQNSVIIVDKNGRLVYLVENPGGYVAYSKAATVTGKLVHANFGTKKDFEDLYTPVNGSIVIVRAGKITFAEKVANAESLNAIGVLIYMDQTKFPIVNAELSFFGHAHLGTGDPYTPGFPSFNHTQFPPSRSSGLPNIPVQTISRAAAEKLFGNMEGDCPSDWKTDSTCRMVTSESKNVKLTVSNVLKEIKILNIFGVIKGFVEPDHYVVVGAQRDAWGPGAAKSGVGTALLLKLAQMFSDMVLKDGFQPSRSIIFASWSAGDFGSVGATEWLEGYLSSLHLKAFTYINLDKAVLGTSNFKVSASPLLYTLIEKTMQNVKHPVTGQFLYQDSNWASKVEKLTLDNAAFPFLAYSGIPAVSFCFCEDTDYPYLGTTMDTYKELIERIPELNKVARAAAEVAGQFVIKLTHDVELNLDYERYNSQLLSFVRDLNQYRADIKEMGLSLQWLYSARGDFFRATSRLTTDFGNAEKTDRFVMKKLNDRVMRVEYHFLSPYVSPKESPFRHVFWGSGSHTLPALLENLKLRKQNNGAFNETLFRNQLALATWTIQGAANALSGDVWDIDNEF
Nature of the assay: SPR; B = KD 1-100 nM. The procedure, abridged: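 Recombinant hTfR dimer immobilised on Ni-NTA chip with EDC/NHS coupling; running buffer 10 mM HEPES pH 8.0, 150 mM NaCl, 0.05% Tween 20, 0.1% BSA, 1.0% DMSO. Peptides injected at 5–100 nM in single-cycle kinetics; KD from least-squares sensorgram fitting.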
Background: Surface plasmon resonance follows binding to a sensor surface in real time, without labels.

B1: 894_0258 (peptide)
peptide: {CH2CO}-AV[NMePhe(4-F)]V[Trp(5-Cl)]NY[Phe(4-OMe)]IIR[dR]FYC-NH2
modifications: thioether N-15; not fully specified (residue 14); also: linker PEG4c, place not given here
As usually defined, the KD is the free concentration of one partner at which half of the binding sites on the other are occupied at equilibrium, for simple one-to-one binding. B1 had a dissociation constant KD of 1 to 100 nM.

B2: 894_0261 (peptide)
peptide: {CH2CO}-AV[NMePhe(4-F)]V[NMeW]NY[Phe(4-OMe)]IIR[dR]FYC-NH2
modifications: thioether N-15; not fully specified (residue 14); also: linker PEG4c, place not given here
In turn, B2 registered a KD of 1 to 100 nM.

Consider {CH2CO}-AV[NMeF]VWNY[Phe(4-OMe)]IIR[dR]FYC-NH2 (thioether N-15; not fully specified (residue 14); also: linker PEG4c) [894_0283, listing 1 of 2 here], for which the KD fell in the range of 1 to 100 nM.

B3: 894_0372 (peptide)
peptide: {CH2CO}-AV[NMePhe(3-Cl)]VWNY[F4aao]IIR[E(PEG8Me)][Phe(3-COOH)]YC-NH2
modifications: thioether N-15; not fully specified (residue 14); also: linker PEG4c, place not given here
B3: the equilibrium dissociation constant (KD) fell in the range of 1 to 100 nM.

As for {CH2CO}-AV[NMePhe(3-Cl)]VWN[3Pal(6-NH2)][F4aao]IIR[E(PEG8Me)][4Pal][NMeY]C-NH2 (thioether N-15; also: linker PEG4c, place not given here) [894_0377], the KD lay within 1 to 100 nM.

As for {CH2CO}-AV[NMePhe(3-Cl)]V[Trp(7-aza)]NY[F4aao]IIQR[4Pal][NMeY]C-NH2 (thioether N-15; also: linker PEG4c, attachment not given here) [894_0424], the dissociation constant KD fell in the range of 1 to 100 nM.

The molecule {CH2CO}-AV[NMePhe(3-Cl)]VWNY[3Pal]IIRR[4Pal][NMeY]CG-{dkCOmeglumine-dkCOmeglumine-dkCOmeglumine-dS-dS-Lys(N3)-NH2} (thioether N-15) [894_3192] gave a KD of 1 to 100 nM.

{CH2CO}-AV[NMePhe(3-Cl)]V[Trp(1-CH2CO)]NY[F4aao]IIQ[Nle(6-morpholino)][4Pal][NMeY]C-NH2 (thioether N-15; also: linker PEG4c, attachment not given here) [894_0420] had a KD of 1 to 100 nM.

B4: 894_3193 (peptide)
peptide: AVFVWNYAIIRRAYC
modifications: 3:MeF3C,8:3Py,13:4Py,14:MeY; linker G-de-de-de-ds-ds-KN3; ClAc-1/C15 thioether ring; C-term NH2
In turn, B4 returned a KD of 1 to 100 nM.

Molecule {CH2CO}-AV[NMePhe(3-Cl)]V[Trp(1-CH2CO)]NY[F4aao]II[E(PEG4Me)]RF[NMeY]C-NH2 (thioether N-15; also: linker PEG4c, place not given here) [894_0395] came in with a KD of 1 to 100 nM.

The molecule {CH2CO}-AV[NMePhe(3-Cl)]V[Trp(1-CH2CO)]NY[F4aao]II[E(NHdPEG1Me)]RF[NMeY]C-NH2 (thioether N-15; also: linker PEG4c, place not given here) [894_0396] gave a KD of 1 to 100 nM.

B5: 894_0375 (peptide)
peptide: {CH2CO}-AV[NMePhe(3-Cl)]VWN[3Pal(6-NH2)][3Pal]IIR[E(PEG8Me)][4Pal]YC-NH2
modifications: thioether N-15; not fully specified (residue 14); also: linker PEG4c, place not given here
In turn, B5 displayed a KD of 1 to 100 nM.

B6: 894_0374 (peptide)
peptide: {CH2CO}-AV[NMePhe(3-Cl)]VWN[3Pal(6-NH2)][3Pal]IIR[E(PEG8Me)][Phe(3-COOH)]YC-NH2
modifications: thioether N-15; not fully specified (residue 14); also: linker PEG4c, place not given here
As to B6, the KD lay within 1 to 100 nM.

Take {CH2CO}-AV[NMeF]VWNYYIIRRY[NMeY]C-NH2 (thioether N-15; also: linker G-de-de-de-S-S-C(AcNMe), place not given here) [894_0393]: the KD was in the range of 1 to 100 nM.

On to {CH2CO}-AV[NMePhe(3-Cl)]VWN[3Pal(6-NH2)][F4aao]IIR[E(PEG8Me)][Phe(3-COOH)][NMeY]C-NH2 (thioether N-15; also: linker PEG4c, place not given here) [894_0376], for which the dissociation constant KD lay within 1 to 100 nM.

The molecule {CH2CO}-AV[NMePhe(3-Cl)]V[Trp(7-aza)]NY[F4aao]IIQ[Nle(6-morpholino)][Phe(3-COOH)][NMeY]C-NH2 (thioether N-15; also: linker PEG4c, attachment not given here) [894_0428] returned a KD of 1 to 100 nM.

{CH2CO}-AV[NMeF]VWNYYIIRRY[NMeY]C-NH2 (thioether N-15; also: linker G-de-de-de-de-de-C(AcNMe), place not given here) [894_0394] yielded a KD of 1 to 100 nM.

The molecule {CH2CO}-AV[NMePhe(3-Cl)]V[Trp(7-aza)]NY[F4aao]II[E(PEG8Me)][Nle(6-morpholino)][4Pal][NMeY]C-NH2 (thioether N-15; also: linker PEG4c, attachment not given here) [894_0426] showed a KD of 1 to 100 nM.

{CH2CO}-AV[NMeF]V[Trp(1-CH2CO)]NY[F4aao]IIRRY[NMeY]C-NH2 (thioether N-15; also: linker G-de-de-de-ds-ds-KN3, attachment not given here) [894_3170] showed a KD of 1 to 100 nM.

{CH2CO}-AV[NMePhe(3-Cl)]V[Trp(7-aza)]NY[F4aao]IIQ[Nle(6-morpholino)][4Pal][NMeY]C-NH2 (thioether N-15; also: linker PEG4c, attachment not given here) [894_0425] gave a KD of 1 to 100 nM.

{CH2CO}-AV[NMeF]VWNY[F4aao]IIRRY[NMeY]C-NH2 (thioether N-15; also: linker G-de-de-de-ds-ds-KN3, attachment not given here) [894_3169]: the KD lay within 1 to 100 nM.

Take {CH2CO}-AV[NMePhe(3-Cl)]VWNY[Phe(4-OMe)(3)]IIKRF[NMeY]C (thioether N-15; not fully specified (C-terminus)) [894_3150]: the KD was 1 to 100 nM.

B7: 894_0373 (peptide)
peptide: {CH2CO}-AV[NMePhe(3-Cl)]VWNY[F4aao]IIR[E(PEG8Me)][4Pal]YC-NH2
modifications: thioether N-15; not fully specified (residue 14); also: linker PEG4c, place not given here
Regarding B7, the dissociation constant (KD) fell in the range of 1 to 100 nM.

For {CH2CO}-AV[NMePhe(3-Cl)]V[Trp(1-CH2CO)]NY[F4aao]IIQR[Phe(3-COOH)][NMeY]C-NH2 (thioether N-15; also: linker PEG4c, attachment not given here) [894_0421], the KD was in the range of 1 to 100 nM.

Molecule {CH2CO}-AV[NMePhe(3-Cl)]V[Trp(1-CH2CO)]NY[F4aao]IIQR[4Pal][NMeY]C-NH2 (thioether N-15; also: linker PEG4c, place not given here) [894_0419] registered a KD of 1 to 100 nM.

B8: 894_0253 (peptide)
peptide: {CH2CO}-AV[NMeF]V[Trp(5-Cl)]NY[Phe(4-OMe)]IIR[dR]FYC-NH2
modifications: thioether N-15; not fully specified (residue 14); also: linker PEG4c, place not given here
As for B8, the KD lay within 1 to 100 nM.

The molecule {CH2CO}-AV[NMeF]VWNY[Phe(4-OMe)]IIR[dR]FYC-NH2 (thioether N-15; not fully specified (residue 14); also: linker PEG4c) [894_0283, listing 2 of 2 here] registered a dissociation constant (KD) of 1 to 100 nM.

Molecule {CH2CO}-AV[NMeF]VWNY[Phe(4-OMe)]II[NMeR]RFYC-NH2 (thioether N-15; not fully specified (residue 14); also: linker PEG4c) [894_0285] came in with a KD of 1 to 100 nM.

B9: 894_0262 (peptide)
peptide: {CH2CO}-AV[NMePhe(4-F)]V[NMeW]NY[Phe(4-OMe)]II[NMeR][dR]FYC-NH2
modifications: thioether N-15; not fully specified (residue 14); also: linker PEG4c, place not given here
Turning to B9, the KD was in the range of 1 to 100 nM.

B10: 894_0259 (peptide)
peptide: {CH2CO}-AV[NMePhe(4-F)]V[Trp(5-Cl)]NY[Phe(4-OMe)]II[NMeR][dR]FYC-NH2
modifications: thioether N-15; not fully specified (residue 14); also: linker PEG4c, place not given here
Take B10: the KD was in the range of 1 to 100 nM.
